{
  "source": "paper PMC3424545",
  "about": "(Nucleic Acids Research, 2012)",
  "binders": {"B1": {"name": "GST-tagged C-terminus VprBP (864-1507) (domain or fragment)", "chain": "not shown"}},
  "target": "T1, His6-tagged Mcm10 (human, UniProt Q7L590 1-875)",
  "T1 sequence (looked up)": "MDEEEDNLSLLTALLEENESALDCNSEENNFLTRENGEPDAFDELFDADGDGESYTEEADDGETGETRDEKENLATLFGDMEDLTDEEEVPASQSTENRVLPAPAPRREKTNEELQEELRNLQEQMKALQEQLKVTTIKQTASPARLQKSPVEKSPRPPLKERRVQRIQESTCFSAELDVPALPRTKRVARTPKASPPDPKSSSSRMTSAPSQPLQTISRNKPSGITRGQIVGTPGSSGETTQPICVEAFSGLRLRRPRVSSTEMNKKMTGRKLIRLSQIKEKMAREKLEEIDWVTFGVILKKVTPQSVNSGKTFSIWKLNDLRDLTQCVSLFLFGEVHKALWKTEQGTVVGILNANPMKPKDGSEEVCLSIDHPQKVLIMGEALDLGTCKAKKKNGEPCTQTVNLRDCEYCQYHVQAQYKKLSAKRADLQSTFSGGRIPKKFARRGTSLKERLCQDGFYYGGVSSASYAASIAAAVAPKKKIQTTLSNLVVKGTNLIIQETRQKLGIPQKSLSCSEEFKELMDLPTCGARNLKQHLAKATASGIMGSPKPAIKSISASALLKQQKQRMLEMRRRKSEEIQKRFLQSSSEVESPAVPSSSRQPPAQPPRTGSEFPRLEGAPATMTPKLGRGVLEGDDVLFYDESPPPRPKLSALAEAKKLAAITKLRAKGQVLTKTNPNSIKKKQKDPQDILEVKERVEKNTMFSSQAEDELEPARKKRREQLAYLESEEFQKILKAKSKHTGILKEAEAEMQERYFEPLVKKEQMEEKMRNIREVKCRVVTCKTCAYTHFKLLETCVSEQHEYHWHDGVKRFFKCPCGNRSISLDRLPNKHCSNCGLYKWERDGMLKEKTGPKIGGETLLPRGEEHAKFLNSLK",
  "test": "pull-down",
  "data": [
    {"binder": "B1", "values": [
      {"measurement": "binding result", "value": "binds"}
    ]}
  ]
}
